Experimental data from the nanobody polyreactivity screen of Harvey et al. (2022).

Assay: yeast display, Sf9 membrane polyspecificity reagent, FACS + sequencing; frameworks hold sequencing errors
Summary of the method: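 Nanobodies from a synthetic yeast display library (Saccharomyces cerevisiae BJ5465), induced 36–48 hours with galactose, were stained 1 hour at 4 °C with 10% biotinylated, detergent-solubilized Sf9 membrane reagent, enriched on streptavidin microbeads, then FACS-sorted. Anti-HA (expression) and streptavidin (reagent binding) fluorescence set low and high (top ~1%) gates. Polyreactivity labels come from the gate of origin. Genes were colony-PCR amplified, MiSeq 2 × 250 sequenced and filtered by CDR length.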

Row | Sequence | polyreactivity (PSR sort gate)
1 | QVQLVESGGGLVQAGGSLRLSCAASGITFSHNAMGWYRQAPGKERELVAVIRWSGGRTYYADSVKGRFTISRDNAKNTVYLQMNSLKPEDTAVYYCAARPSTAFPYGKIMDYWGQGTQVTVSS | low polyreactivity
2 | QVQLVESGGGLVQAGGSLRLSCAASGITFSNSAMGWYRQAPGKERELVASITRRGTRTYYADSVKGRFTISRDNAKNTVYLQMNSLKPEDTAVYYCNRSFYSWIDLIYGGYDYWGQGTQVTVSS | high polyreactivity
3 | QVQLVESGGGLVQAGGSLRLSCAASGITFSRNAMGWYRQAPGTDRELGAVISTRGGRTYYADSVKGRFTISRDNAKNTVYLQMNSLKPEDTAVYYCAASPDPYWRRMDYWGQGTQVTVSS | high polyreactivity
4 | QVQLVESGGGLVQAGGSLRLSCAASGITFSRYAMGWYRQAPGKERELVAAISSGGSTYYADSVKGRFTISRDNAKNPVYLQMNSLKPEDTAVYYCAAVILSRWASYREYYYWGQGTQVTGSS | high polyreactivity
5 | QVQLVESGGGLVQAGGSLRLSCAASGITFSSYAMGWYRQAPGKERELVAAISYGGGNTYYADSVKGRFTISRDNAKNTVYLQMNSLKPEDTAVYYCNTLYTSYSGLDYWGQGTQVTVSS | high polyreactivity
6 | QVQLVESGGGLVQAGGSLRLSCAASGITFSTYAMGWYRQAPGKERELVAAINWSGGSTRYADSVKGRFTISRDNAKNTVYLQMNSLKPEDTAVYYCAAEVQGQVGEFDYWGQGTQVTVSS | low polyreactivity
7 | QVQLVESGGGLVQAGGSLRLSCAASGITFSVYAMGWYRQAPGKERELVAAISGSGGSTYYADSVKGRFTISRDNAKNTVYLQMNSLKPEDTAVYYCAARLAQKYSPTRYNYWGQGTQVTVSS | high polyreactivity
8 | QVQLVESGGGLVQAGGSLRLSCAASGITFSVYAMGWYRQAPGKERELVASISSGGTSTYYADSVKGRFTISRDNAKNTVYLQMNSLKPEDTAVYYCAAYSYYTGDQYSYDYWGQGTQVTVSS | low polyreactivity
9 | QVQLVESGGGLVQAGGSLRLSCAASGITFSYYAMGWYRQAPGKEREFVAAINWDGGSTYYADSVKGRFTISRDNAKNTVYLQMNSLKPEDTAVYYCNADEFEYIYVDTLNYGDDYWGQGTQVTVSS | low polyreactivity
10 | QVQLVESGGGLVQAGGSLRLSCAASGITFTAYAMGWYRQAPGKERELVATINSTGITNYADSVKGRFTISRDNAKNTVYLQMNSLNPEDTAVYYCAADLLDISSYDGMDYWGQGTQVTVSS | low polyreactivity
11 | QVQLVESGGGLVQAGGSLRLSCAASGITFTDYAMGWYRQAPGKERELVAAISGIGSTTYYADSVKGRFTISRDNAKNTVYLQMNSLKPEDTAVYYCNALLAYTYWYDYWGQGTQLTVSS | high polyreactivity
12 | QVQLVESGGGLVQAGGSLRLSCAASGITFTDYAMGWYRQAPGKERELVAAISSSGGRTYYADSVKGRFTISRDNAKNTVYLQMNSLKPEDTAVYYCAARDYDRTQSGRDYWGQGTQVTVSS | high polyreactivity
13 | QVQLVESGGGLVQAGGSLRLSCAASGITFTENLMGWYRQAPGKERELVAGISRSGGITYFADSVKGRFTISRDNAKNTVYLQMNSLKPEDTSVYYCAADFYASYSPYYYWGQGTQVTVSS | high polyreactivity
14 | QVQLVESGGGLVQAGGSLRLSCAASGITFTFNAMGWYRQAPGKERELVAAISSTTSTKYADSVKGRFTISRDNAKTTVYLQMNSLKPEDTAVYYCARTYWLRYYGYRDDEYDYWGQGTQVTVSS | low polyreactivity
15 | QVQLVESGGGLVQAGGSLRLSCAASGITFTFNAMGWYRQAPGKERELVAAITWSGGSTFYADSVKGRFTISRDNAKNTVDLQMNSLKPEDTAVYYCARDTELYVRWLDYWGQGTQVTVSS | low polyreactivity
16 | QVQLVESGGGLVQAGGSLRLSCAASGITFTFNAMGWYRQAPGKERELVAAITWSGGSTFYADSVKGRFTISRDNAKNTVYLQMNSLKPEDTAVYYCARDTELYVRWLDYWGQGTQVSVSS | low polyreactivity
17 | QVQLVESGGGLVQAGGSLRLSCAASGITFTFYAMGWYRQAPGKERELVATIDSGGSTNYADSVKGRFTISRDNAKNTVYLQMNSLKPEDTEVYYCAADGVWYYYDMDYWGQGTQVTVSS | low polyreactivity
